Experimental data: patent publication US20150010495A1

Target: […]n, n = 5 (100-mer), non-glycosylated (human)
Assay: peptide ELISA, OD 492 nm; limit of the class, member by Table 2; reference: 20-mer

Sequence of […]n, n = 5 (100-mer), non-glycosylated (human) (peptide, as listed by the source): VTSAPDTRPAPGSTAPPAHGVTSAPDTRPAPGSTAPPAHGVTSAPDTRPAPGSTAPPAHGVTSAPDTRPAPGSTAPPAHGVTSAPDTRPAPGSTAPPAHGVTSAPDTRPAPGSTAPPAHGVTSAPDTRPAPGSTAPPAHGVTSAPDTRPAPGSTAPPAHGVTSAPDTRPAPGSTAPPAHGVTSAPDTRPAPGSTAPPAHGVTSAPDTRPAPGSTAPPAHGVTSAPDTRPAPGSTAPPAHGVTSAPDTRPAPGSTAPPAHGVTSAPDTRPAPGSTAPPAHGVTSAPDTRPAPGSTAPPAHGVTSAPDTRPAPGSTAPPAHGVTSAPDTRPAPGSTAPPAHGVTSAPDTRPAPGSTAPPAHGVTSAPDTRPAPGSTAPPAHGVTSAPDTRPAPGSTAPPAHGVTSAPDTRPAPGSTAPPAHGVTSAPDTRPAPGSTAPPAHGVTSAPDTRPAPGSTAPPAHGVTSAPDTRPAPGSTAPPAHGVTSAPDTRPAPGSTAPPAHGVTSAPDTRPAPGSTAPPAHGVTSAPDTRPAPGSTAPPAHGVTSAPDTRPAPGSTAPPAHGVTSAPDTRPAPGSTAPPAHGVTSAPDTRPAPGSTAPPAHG

ratio of the optical density 100-mer/20-mer | Substance
1.5 to 3 | 214D4 (antibody)
1.5 to 3 | B27.29 (antibody)
> 3 | BC2 (antibody)
< 1.5 | C595 (antibody)
1.5 to 3 | E29 (antibody)
